For data set [1] the following is noted: rat, in vivo, iv, 100 nmol/kg. As for the experimental part:
This study was conducted to evaluate the PK profile of SEQ ID NOs. 77, 102, and 103 and compare the PK profile by the different lipidated structure of peptides in rat plasma by IV administration. SEQ ID NOs. The peptides were delivered at 0.02% PS80 in PBS and dosing volume was 2.5 mL/kg.
The animals were not fasted prior to dosing. 0.2-0.4 mL of whole blood was taken from vein at each time point (0.167, 0.5, 1, 2, 4, 6, 8, 24, and 48 hr after administration) and transferred into the heparin coated tube.
The resulting plasma of 0.1-0.2 mL obtained by centrifugation of the blood samples was transferred into the tube and stored at −70° C. until analysis. The concentrations of peptides in plasma were determined by LC-MS/MS analysis.

A short description of data set [2]: In vivo efficacy in CDA-HFD (NASH) mice, 4 weeks. The conditions noted are these: Example 16; for body weight compared to vehicle-treated control, in words: 20 nmol/kg s.c. Q2D, 4 weeks; for liver enzymes and liver steatosis compared to vehicle-treated control, in words: end of treatment. The protocol: This study was conducted to evaluate the efficacy of SEQ ID NOs. […] SEQ ID NOs. The peptides were delivered at 0.02% PS80 in PBS and dosing volume was 10 mL/kg. Control group was administered by vehicle without peptide.
Body weight changes were monitored Q2D; serum chemistry (end); hepatic TG (end); and histological analysis (end). […]

The nature of data set [3]: In vivo efficacy in mAMLN (obese and NASH) mice, 4 weeks. The conditions noted are these: after 4 weeks.
The target of data set [4] is T1, human glucagon receptor (GCGR), expressed on CHO-K1 cells (human, UniProt P47871 26-477). Kind of data set: cell-based or functional assay.
T1 sequence (P47871 26-477): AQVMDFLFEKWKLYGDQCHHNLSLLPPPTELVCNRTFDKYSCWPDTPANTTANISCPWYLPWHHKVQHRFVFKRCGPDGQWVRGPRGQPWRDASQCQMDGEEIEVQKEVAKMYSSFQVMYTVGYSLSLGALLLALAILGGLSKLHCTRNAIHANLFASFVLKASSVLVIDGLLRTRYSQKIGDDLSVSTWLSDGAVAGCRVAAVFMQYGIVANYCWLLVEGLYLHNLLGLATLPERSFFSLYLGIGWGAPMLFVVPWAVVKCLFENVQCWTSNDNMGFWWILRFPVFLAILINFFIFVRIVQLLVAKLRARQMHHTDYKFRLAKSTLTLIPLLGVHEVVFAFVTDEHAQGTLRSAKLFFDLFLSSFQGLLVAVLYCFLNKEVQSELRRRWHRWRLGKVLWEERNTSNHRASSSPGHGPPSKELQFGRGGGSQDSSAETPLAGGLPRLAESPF
The target of data set [5] is T2, human glucose-dependent insulinotropic polypeptide receptor (GIPR), expressed on CHO-K1 cells (human, UniProt P48546 22-466).
T2 sequence (looked up): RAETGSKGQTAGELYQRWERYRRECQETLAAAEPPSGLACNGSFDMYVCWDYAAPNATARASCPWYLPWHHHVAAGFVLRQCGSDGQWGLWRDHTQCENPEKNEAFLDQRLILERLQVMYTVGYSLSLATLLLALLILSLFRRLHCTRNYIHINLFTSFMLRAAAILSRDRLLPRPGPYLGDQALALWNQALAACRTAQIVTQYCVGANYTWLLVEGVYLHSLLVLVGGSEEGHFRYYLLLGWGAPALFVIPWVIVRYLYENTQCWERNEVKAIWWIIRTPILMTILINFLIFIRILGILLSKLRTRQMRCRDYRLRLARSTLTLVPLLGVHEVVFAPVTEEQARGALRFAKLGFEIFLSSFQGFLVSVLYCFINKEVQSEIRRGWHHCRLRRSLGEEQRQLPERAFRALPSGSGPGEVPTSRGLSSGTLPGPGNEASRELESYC
The experiment in a line: cell-based or functional assay.

Data set [6] has as its target T3, human GLP-1 receptor (GLP-1R), expressed on CHO-K1 cells (human, UniProt P43220 24-463). The experiment in a line: cell-based or functional assay.
The target in data set [7] is T1, human glucagon receptor (GCGR), …. Kind of data set: cell-based or functional assay. This is another data set of the same source.
Data set [8] deals with T2, human glucose-dependent insulinotropic …. The experiment in a line: cell-based or functional assay. The source holds these as a separate data set.
Data set [9] addresses T3, human GLP-1 receptor (GLP-1R), …. Kind of data set: cell-based or functional assay. The source holds these as a separate data set.
For data set [10], the target named is T1, human glucagon receptor (GCGR), …. The experiment in a line: cell-based or functional assay. The source holds these as a separate data set.
Data set [11] has as its target T2, human glucose-dependent insulinotropic …. The experiment in a line: cell-based or functional assay. This is another data set of the same source.
Data set [12] deals with T3, human GLP-1 receptor (GLP-1R), …. The experiment in a line: cell-based or functional assay. The source holds these as a separate data set.
In data set [13] the target is T1, human glucagon receptor (GCGR), …. The experiment in a line: cell-based or functional assay. This is another data set of the same source.
The target in data set [14] is T2, human glucose-dependent insulinotropic …. Kind of data set: cell-based or functional assay. This is another data set of the same source.
For data set [15], the target named is T3, human GLP-1 receptor (GLP-1R), …. Kind of data set: cell-based or functional assay. The source holds these as a separate data set.
Data set [16] has as its target T1, human glucagon receptor (GCGR), …. Kind of data set: cell-based or functional assay. The source holds these as a separate data set.
In data set [17] the target is T2, human glucose-dependent insulinotropic …. Kind of data set: cell-based or functional assay. This is another data set of the same source.
In data set [18] the target is T3, human GLP-1 receptor (GLP-1R), …. Kind of data set: cell-based or functional assay. The source holds these as a separate data set.

Like-named read-outs stand apart in the source and are kept apart here. Numbered stars: 1 amine (or outer) side, 2 acyl side, 3 side chain; on linkers, the order of the positions; unused ones are H or OH. Square brackets hold non-standard residues; d marks the D form. Primed or numbered codes have the meaning given here. Side chains are listed from the residue outwards. Ends that are not written are not given here. Peptide text beside a SMILES is read from it. * marks the point of attachment. C18 = C18 fatty acid (C16-C22 fatty acids conjugated via γGlu/8-amino-3,6-dioxaoctanoic acid spacers); C18″ = C18 fatty acid moiety (of 2OEG-γGlu-C18, K*); C20 = C20 fatty acid moiety (of 2OEG-γGlu-C20, K**); C20 diacid = O=C(O)CCCCCCCCCCCCCCCCCCC(=O)*; γGlu = O=C(O)[C@H](CCC(=O)[*:2])N[*:1]; αMeR = C[C@](N)(CCCNC(=N)N)C(=O)O; AEEA = NCCOCCOCC(=O)O; Aib = CC(C)(N)C(=O)O

Broadly, the half-life is the time in which the quantity being followed falls by half. A lower half-life goes with fast loss.

`CSCC[C@H](NC(=O)[C@H](Cc1ccc(O)cc1)NC(=O)[C@H](CC(=O)O)NC(=O)[C@H](CC(C)C)NC(=O)[C@H](CC(C)C)NC(=O)[C@H](CCCCNC(=O)COCCOCCNC(=O)COCCOCCNC(=O)CC[C@H](NC(=O)CCCCCCCCCCCCCCCCCCC(=O)O)C(=O)O)NC(=O)[C@H](CO)NC(=O)[C@H](Cc1ccc(O)cc1)NC(=O)[C@H](CC(=O)O)NC(=O)[C@H](CO)NC(=O)[C@@H](NC(=O)[C@H](Cc1ccccc1)NC(=O)[C@@H](NC(=O)CNC(=O)[C@H](CCC(N)=O)NC(=O)C(C)(C)NC(=O)[C@@H](N)Cc1ccc(O)cc1)[C@@H](C)O)[C@@H](C)O)C(=O)N[C@@H](CCSC)C(=O)N[C@@H](CCC(N)=O)C(=O)N[C@@H](CCCNC(=N)N)C(=O)N[C@@H](CC(=O)O)C(=O)N[C@@H](Cc1ccccc1)C(=O)N[C@H](C(=O)N[C@@H](CCC(N)=O)C(=O)N[C@@H](Cc1c[nH]c2ccccc12)C(=O)N[C@@H](CC(C)C)C(=O)N[C@@H](CC(C)C)C(=O)N[C@@H](CCC(=O)O)C(=O)NCC(=O)NCC(=O)N1CCC[C@H]1C(=O)N[C@@H](CO)C(=O)N[C@@H](CO)C(=O)NCC(=O)N[C@@H](C)C(=O)N1CCC[C@H]1C(=O)N1CCC[C@H]1C(=O)N1CCC[C@H]1C(=O)N[C@@H](CO)C(N)=O)C(C)C` [compound 103] (H-Y[Aib]QGTFTSDYSK([AEEA-AEEA-γGlu-C20 diacid])LLDYMMQRDFVQWLLEGGPSSGAPPPS-NH2; N-terminus and C-terminus assumed): in data set [1], the “AUCinf/dose” value was 629.51 ± 76.87 kg·h/L and the half-life is 9.59 ± 1.32 h. In [2], the “efficacy in the NASH model, in words” value is “superior efficacy compared to SEQ ID NO. 77”; the “hepatic steatosis score compared to CDA-HFD control, in words” value is “significantly reduced”; the “scores of hepatocytes inflammation and NAS score, in words” value is “statistically reduced”; the “body weight compared to vehicle-treated control, in words” value is reported as “reduce body weight”. Moreover, the “liver enzymes and liver steatosis compared to vehicle-treated control, in words” value in [2] was “reduce liver enzymes and liver steatosis significantly”.

In the case of `CSCC[C@H](NC(=O)[C@H](Cc1ccc(O)cc1)NC(=O)[C@H](CC(=O)O)NC(=O)[C@H](CC(C)C)NC(=O)[C@H](CC(C)C)NC(=O)[C@H](CCCCNC(=O)COCCOCCNC(=O)CC[C@H](NC(=O)CCCCCCCCCCCCCCCCCCC(=O)O)C(=O)O)NC(=O)[C@H](CO)NC(=O)[C@H](Cc1ccc(O)cc1)NC(=O)[C@H](CC(=O)O)NC(=O)[C@H](CO)NC(=O)[C@@H](NC(=O)[C@H](Cc1ccccc1)NC(=O)[C@@H](NC(=O)CNC(=O)[C@H](CCC(N)=O)NC(=O)C(C)(C)NC(=O)[C@@H](N)Cc1ccc(O)cc1)[C@@H](C)O)[C@@H](C)O)C(=O)N[C@@H](CCSC)C(=O)N[C@@H](CCC(N)=O)C(=O)N[C@@H](CCCNC(=N)N)C(=O)N[C@@H](CC(=O)O)C(=O)N[C@@H](Cc1ccccc1)C(=O)N[C@H](C(=O)N[C@@H](CCC(N)=O)C(=O)N[C@@H](Cc1c[nH]c2ccccc12)C(=O)N[C@@H](CC(C)C)C(=O)N[C@@H](CC(C)C)C(=O)N[C@@H](CCC(=O)O)C(=O)NCC(=O)NCC(=O)N1CCC[C@H]1C(=O)N[C@@H](CO)C(=O)N[C@@H](CO)C(=O)NCC(=O)N[C@@H](C)C(=O)N1CCC[C@H]1C(=O)N1CCC[C@H]1C(=O)N1CCC[C@H]1C(=O)N[C@@H](CO)C(N)=O)C(C)C` [compound 102] (H-Y[Aib]QGTFTSDYSK([AEEA-γGlu-C20 diacid])LLDYMMQRDFVQWLLEGGPSSGAPPPS-NH2; N-terminus and C-terminus assumed), in data set [1], the “AUCinf/dose” value worked out at 672.93 ± 32.13 kg·h/L and the half-life was 9.77 ± 0.89 h. Further, in data set [2], the “scores of hepatocytes inflammation and NAS score, in words” value is listed as “statistically reduced”; the “body weight compared to vehicle-treated control, in words” value was “reduce body weight”; the “liver enzymes and liver steatosis compared to vehicle-treated control, in words” value was “reduce liver enzymes and liver steatosis significantly”.

For the molecule “97 (Y[Aib]QGTFTSDYSK([AEEA-AEEA-γGlu-C18])YLDYMMQRDFVK(N‑Biotinoyl‑N'‑(6-maleimidohexanoyl)hydrazide)WLLEGGPSSGAPPPS-NH2) [compound 97]”, in data set [3], the “NAS score, in words” value is reported as “statistically decreased more than the level of tirzepatide”; the “hepatic steatosis (histological score), in words” value is listed as “significantly reduced”; the “liver weight, visceral fat weight, liver enzymes, and liver steatosis compared to vehicle-treated control, in words” value was “significantly reduced”.

Regarding Y[Aib]QGTFTSDYSK([AEEA-AEEA-γGlu-C18″])LLDYMMQRDFVQWLLEGGPSSGAPPPS-NH2 [Peptide No. 5-3D], the “Relative % to non-lipidated peptide” value in data set [4] is 1%; in data set [5] it was 15%; in data set [6], 19%. The “Ratio vs. GLP-1R” value turned out to be 9 in [7]; 880 in [8]; 100 in data set [9]; 26 in [13]; 105 in [14]; 100 in data set [15]. Besides, the “Relative % to native ligand” value was determined as 11% in data set [10]; 1050% in data set [11]; 119% in data set [12]; 56% in data set [13]; 230% in data set [14]; 219% in data set [15].

B1: SEQ ID NO. 110 (peptide)
peptide: Y[Aib]QGTFTSDYSK([AEEA-AEEA-γGlu-C20])YLDYMMQ[αMeR]DFVKWLLEGGPSSGAPPPS-NH2
modifications: not fully specified (residue 24); printed as YAibQGT FTSDY SK**YLD YMMQαR DFVB*W LLEGG PSSGA PPPS
As for B1, the entries for the “Ratio vs. GLP-1R” value in data set [16], in [17] and in data set [18] were 29, 272 and 100, respectively. In addition, the figures for the “Relative % to native ligand” value in [16], in data set [17] and in [18] were 11%, 105% and 39%, respectively.

On to Y[Aib]QGTFTSDYSK([AEEA-AEEA-γGlu-C20])YLDYMMQ[αMeR]DFVQWLLEGGPSSGAPPPS-NH2 [SEQ ID NO. 107], for which the “Ratio vs. GLP-1R” value in [16] came to 37; in data set [17], 537; in [18], 100. The “Relative % to native ligand” value in data set [16] was 14%; in data set [17] it was 200%; in data set [18], 37%.

Take Y[Aib]QGTFTSDYSK([AEEA-AEEA-γGlu-C20])LLDYMMQ[αMeR]DFVQWLLEGGPSSGAPPPS-NH2 [SEQ ID NO. 108]: the “Ratio vs. GLP-1R” value in [16] worked out at 83; in data set [17], 971; in data set [18], 100. Besides, the “Relative % to native ligand” value in data set [16] worked out at 39%; in data set [17], 451%; in data set [18] it was 46%.

The record behind these values is patent US20250296960A1, “PEPTIDE COMPOSITIONS AND METHODS OF USE THEREOF” (priority 2022, published 2025).
